1 molecule from article PMC8311663 (Molecular cell, 2021) can be followed below.

Series [1] addresses RNAP core (Mtb);sigmaA;CarD;RbpA;WhiB7 (Mycobacterium …, UniProt P9WGZ1;P9WGY9;P9WGY7;P9WGY5;P9WGI1;P9WJG3;P9WHJ5;Q6MX01 …, L7M||||). The experiment in a line: cryo-EM.
Series [2] concerns the target RNAP core (Mtb);sigmaA;CarD;RbpA (Mycobacterium …, UniProt P9WGZ1;P9WGY9;P9WGY7;P9WGY5;P9WGI1;P9WJG3;P9WHJ5 …, L7M|||). Kind of series: cryo-EM.

B1: whiB7 promoter (-70 to +30) (dsDNA)
DNA 1: CTGTACCGGCAAACGCGCAGGTCAGAAAATCGGTTGTGGTCAGCTGCTGCCACCGGTTAACCTCCAGGTCGCATTCTGCTGCCAGCCTGGAGATGGCATT
DNA 2: AATGCCATCTCCAGGCTGGCAGCAGAATGCGACCTGGAGGTTAACCGGTGGCAGCAGCTGACCACAACCGATTTTCTGACCTGCGCGTTTGCCGGTACAG
Consider B1, for which the binding result in series [1] and in series [2] was “binds” throughout.
